Source: patent US5716622

Biological target: Stat1α (human)
Experiment: co-immunoprecipitation with anti-FLAG M2 from COS cells with or without EGF, blot with Stat1 antiserum

amount of Stat1 coprecipitated, treated cells against untreated cells: 5 fold
Substance: FLAG-tagged Stat3
